The NTF2 design screens of Basanta et al. (2020)

Assay: protease stability score; higher = more stable; yeast display proteolysis, trypsin and chymotrypsin;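 note: relative to predicted unfolded state with 0 unfolded-like and 1 meaning tenfold more protease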

Sequence | protease stability score
DEEEEALEEVLRLLSKAILTGDEDQMRELVDPHVRVHVGDKDLIGWDRYKRHTKEMRIIIHRFELRDKRRVGNKLEFDGHMDYELIVNGRTWKHREDMFMVIVKVNGKWHIHYEQVD | 0.88
SDEERSIKILIDLYRLAQETGDERIMREYADPDMKLDIGDKRDHGWEVLVRMVRHLRFHEIHIEHFEVQGNKMHITVRIDTEVNGQRWILRAHIIVTKFNGKWRIEHREEE | 1.45
DDEERQAREFLKNYIRSLLTGDEDTLDELVDPNARWHVGDYHMIGRDSVSFLTKHLRIKHIEIKDIEIYGNKAIVLVHMHGIIDGKERDTDIIIFVEKINGQWKVREHRIS | 1.15
NEKEEESKRFIELFMELIVTGNEEVLYKLADPTVQWRADVDGQEINLHGWEHIHDEINKFPNITLELEEREIQGDKVDIRTRLHIGDKTRDTRVIIIVINGRVKQIHIEIR | 2.28
SEEHRQILHVMHLILELWMTGDEETLYHLADPNVRLLIDGREYHGREQIRKVWEDHHRRADHVDFRLKRFELFENHAHVHGEFIIVVNGVEFRHETELELHVVNGRVKEHNLRIK | 1.35
DDREKETQEFFERWVEAFITGDEHDLHEMLDPHARIHLIIGDKKEDLHGRESAVEVMKRIDHKHEFRIRHLWIFDGRIHVDVKLTGHFDGRTYQHDVHINIKIVDGKIHSIQIEWR | 2.22
DEDERVLEEALRLWLHWVATGNETKLMEMLDPNVRLDIGDKHTHGREKFHEFMKHHKELWGVTRFHLELKRYSIQGDKVEIDIEVDINGRHFDVHIRILKIDGKWRLEQVRIN | 1.51
SEDEELTNKMRHLFLHAVRTGDETVLNRLIDPNTKLHINGVDIHGREEVRTLLREMRRHEFRTRTVEIRVIDGRVEVREDVERNGVVNGQEYETRVIIIYHAVKVDGKWVWTEIRFEER | 0.609
DEEDMDEVEKAIRKNDPEKMRDLADENAKASVGDNQFHGRDNVENFMKHLTDHADHVQVDSVEKHNGRVVVNAQLDINGEQIQIVIRIDVHNGKIKRFSIEVRDEEAHHFMREMVS | 0.686
DEDKENAEEAIRRLMEMILTGDEDQIRHMIDPHVRVIINGRDHHGWEELLRFWKEMRIHDVKVHDIKIINGRVNSDTKIVTEIGDFRIELEAHFIFHKFDGRWRVDSVDLR | 1.18
DEDEHVLEHIVRLLIRIHLTGNFDRLRELVDPHAQIIIGDKEYHGWHMLEKWLERMGIDHIHIRHNEIRYYGEFAVLHLDTEVSIDGQSLHQIVHLDVDKVDGKWRVKNIRTDHR | 1.34
DEERKSTELALKHWHESMRTGDEHDTRRMMDPNVRVEIGDKTYVGREDVLEFMHRLGANHVEHFEIEDWKIVNGKVVMHGHSRVRIGDFEANTEVIIFSQKFNGRWFLESVIIV | 0.656
SEEEHRSELAVELVHYTLMTGDFHLIERLVDPNVKLRILIGDKEYDLHGWKEVYRFMVTFGFDHMELKTFDLQGDKLNIDLRLHVDGRNVETSIVALKVNGKWINESEHYRIK | 0.464
DEWEEFVKRFLEAHVKANRTGDERLLQELIDPHVRIEFNGVELHGREIFTETISQLRIKDVNLRRYHMYDGQVEIHGELHGVFNGQEKDTKIHVREIKVDGRWKMKEYSIH | 0.994
SEDEEYSHFASELFLNIFETGDWKTLLHYMDPNTRLVVNGRHHHGWKFMVEFLLHARIHTTRLKDIRTVNGKVDVDGRVDGHINGQKEERVFIINITKVNGVWILESVIIE | 0.986
SEEDELAKRILETLVRLLLTGNEELRHELADPNMRTEVDGVDLWGMHNDVHFWREIRLKELRIRHIEVQGDKSHSITDLDVEIDGKRIRVETKIRVVVVNGKIHRLHVRID | 1.51
DEDEQMKESLLKIYRQSMHTGDEESHERLADPNVRVDWDGVRYHGRHILAIILHELGADHMDLKIKDSRLVNGRIHMTVIEIIDIGDKKHKIETHLIADKFDGRWHLRTLEIR | 0.785
DHTHEAVEHLWKLLLHAIATGDFRILSHLLDPNVRIIFNGRTLVGRQSLEILLKRFDHEKIEEVRLRSTRIQGNFVDLDTEIIMVLHYDGKEYRIHTETHVHVVKVDGRWLIEELRID | 2.62
NDEEQVAHKFFEKLMHALLTGDEERLKELHDPDVRVDYGNFKLVGREKMVEFWHRFLEEIRLRNTHIETYHIFDGRLEIHSRIHIEVDGKIRIMEVYLEVRKIDGKWRLTHVEFR | 1.68
SDEEERLRDFVRRYMESMRTGDEDTWRTMLDPNVQVTINGRWEIGRESAYEFLWTVFTHLGVDHLELDHFHLYGEKIELDLTAFVNGQTKKVRVELIVIDGKLKSEKIHDK | 1.12
